Earlier results as cited in article PMC4103764.

Target: SARS 3C-like protease (SARS coronavirus) (UniProt P0C6X7)
Experiment: ITC

In the case of “SARS 3C-like protease (from UniProt P0C6X7)”, the Kd is listed as 21.4 µM.
